This note sets out measurements from the supplement of paper PMC7877785.

The nature of the data set: self-splicing fitness, log relative to wild type (ln ratio); higher = more splicing; Tetrahymena group I intron in knt gene, E. coli kanamycin selection, DiMSum; sequences stand for … in CUCUCU…GGAGGGAAAAGUUAUCAGGCAUGCACCUGGUAGCUAGUCUUUAAACCAAUAGAUUGCAUCGGUUUAAAAGGCAAGACCGUCAAAUUGCGGGAAAGGGGUCAACAGCCGUUCAGUACCAAGUCUCAGGGGAAACUUUGAGAUGGCCUUGCAAAGGGUAUGGUAAUAAGCUGACGGACAUGGUCCUAACCACGCAGCCAAGUCCUAAGUCAACAGAUCUUCUGUUGAUAUGGAUGCAGUUCACAGACUAAAUGUCGGUCGGGGAAGAUGUAUUCUUCUCAUAAGAUAUAGUCGGACCUCUCCUUAAUGGGAGCUAGCGGAUGAAGUGAUGCAACACUGGAGCCGCUGGGAACUAAUUUGUAUGCGAAAGUAUAUUGAUUAGUUUUGGAGUACUCGUGGUCG
In a few lines: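 A randomised library covering all eight P1ex-region intron nucleotides was built with the intron in the knt kanamycin-resistance gene on pET-22b(+) and held in E. coli BL21(DE3). Cells were grown overnight at 37°C or 30°C on LB agar, with or without 25 μg/mL kanamycin, plus 100 μg/mL carbenicillin, 50 μM IPTG and 0.2% rhamnose, and pooled colonies were amplicon-sequenced on an Illumina HiSeq 2500. DiMSum fitness is the error-weighted combination of wild-type-normalised replicate fold changes, kanamycin versus none.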

± gives the uncertainty stated by the source.

For GUGCAGCAAUAUUACGGCUC, the “self-splicing fitness (ln)” value runs as follows: (30 °C) -0.0701 ± 0.085; (37 °C) -0.129 ± 0.1. Taken in the same sequence, the figures for CGUCAGCAAUAUUACGUAUU were -2.83 ± 0.13 and -1.84 ± 0.14. Taken in the same sequence, the figures for GCGAAGCAAUAUUACGGCUG were -1.55 ± 0.1 and -0.574 ± 0.14. In the same order, the values of AACAAGCAAUAUUACGCUGA are -1.34 ± 0.087 and -1.01 ± 0.11. With GCCGAGCAAUAUUACGUGUA, the “self-splicing fitness (ln)” value was -1.32 ± 0.071 (30 °C) and -0.983 ± 0.078 (37 °C). Regarding UGGCAGCAAUAUUACGUGCC, the “self-splicing fitness (ln)” value (37 °C) was -1.69 ± 0.26. Turning to GAACAGCAAUAUUACGUGCC, the “self-splicing fitness (ln)” value is, setting by setting: (30 °C) -2.58 ± 0.14; (37 °C) -0.859 ± 0.12. In the same order, the values of ACCGAGCAAUAUUACGAGCU are -2.94 ± 0.23 and -2.54 ± 0.28. In the same order, the values of GAGUAGCAAUAUUACGGGUG are -2.78 ± 0.14 and -1.71 ± 0.14. Taken in the same sequence, the figures for GUAUAGCAAUAUUACGUCGC were -3.04 ± 0.25 and -1.65 ± 0.2.

Consider AAGAAGCAAUAUUACGAUAC, for which the “self-splicing fitness (ln)” value by setting is: (30 °C) -2.94 ± 0.19; (37 °C) -1.31 ± 0.17.

In the case of UGCGAGCAAUAUUACGCUUG, the “self-splicing fitness (ln)” value runs as follows: (30 °C) -3.11 ± 0.37; (37 °C) -2.05 ± 0.3. Take CCCGAGCAAUAUUACGCUUA: the “self-splicing fitness (ln)” value is, setting by setting: (30 °C) -3.88 ± 0.3; (37 °C) -2.82 ± 0.33. Taken in the same sequence, the figures for CGAGAGCAAUAUUACGUUCG were -3.2 ± 0.2 and -1.73 ± 0.23. Take GUCCAGCAAUAUUACGGGGU: the “self-splicing fitness (ln)” value by setting is: (30 °C) -3.62 ± 0.19; (37 °C) -2.65 ± 0.15. Taken in the same sequence, the figures for ACUUAGCAAUAUUACGUAAG were -0.131 ± 0.081 and -0.844 ± 0.1.

Consider GGCGAGCAAUAUUACGGCUC, for which the “self-splicing fitness (ln)” value (30 °C) was -1.83 ± 0.11 and the “self-splicing fitness (ln)” value (37 °C) was -0.815 ± 0.21. Taken in the same sequence, the figures for GGUCAGCAAUAUUACGGCCG were -1.83 ± 0.33 and -1.64 ± 0.33. In the same order, the values of CCACAGCAAUAUUACGAUCA are -2.69 ± 0.33 and -1.98 ± 0.28. Taken in the same sequence, the figures for CUCAAGCAAUAUUACGAUAU were -2.97 ± 0.14 and -1.61 ± 0.14.

For the sequence CAUCAGCAAUAUUACGCGGC, the “self-splicing fitness (ln)” value by setting is: (30 °C) -3.39 ± 0.2; (37 °C) -2.8 ± 0.29.

For the sequence UGACAGCAAUAUUACGAACG, the “self-splicing fitness (ln)” value reads like this: (30 °C) 0.00619 ± 0.095; (37 °C) 0.256 ± 0.1. As to GUAAAGCAAUAUUACGUGAU, the “self-splicing fitness (ln)” value (30 °C) was -2.02 ± 0.085 and the “self-splicing fitness (ln)” value (37 °C) is -1.52 ± 0.12.

Take CAUCAGCAAUAUUACGCGAA: the “self-splicing fitness (ln)” value was -3.13 ± 0.14 (30 °C) and -1.93 ± 0.12 (37 °C).

Regarding CCGCAGCAAUAUUACGUCAA, the “self-splicing fitness (ln)” value runs as follows: (30 °C) -4.05 ± 0.33; (37 °C) -3.04 ± 0.27.

Consider CCUUAGCAAUAUUACGUGUG, for which the “self-splicing fitness (ln)” value is -1.61 ± 0.063 (30 °C) and -0.595 ± 0.078 (37 °C). Taken in the same sequence, the figures for UCCGAGCAAUAUUACGCGGC were -3.97 ± 0.35 and -2.46 ± 0.29. Taken in the same sequence, the figures for CUAUAGCAAUAUUACGGAGG were -2.7 ± 0.17 and 0.224 ± 0.16.

Turning to UCAGAGCAAUAUUACGGGAU, the “self-splicing fitness (ln)” value is, setting by setting: (30 °C) -3.39 ± 0.47; (37 °C) -2.58 ± 0.48. For the sequence AUGGAGCAAUAUUACGUAAC, the “self-splicing fitness (ln)” value by setting is: (30 °C) -2.91 ± 0.34; (37 °C) -2.29 ± 0.46. With CGAUAGCAAUAUUACGGUGA, the “self-splicing fitness (ln)” value (30 °C) is -2.74 ± 0.2 and the “self-splicing fitness (ln)” value (37 °C) was -1.94 ± 0.19. Taken in the same sequence, the figures for CAAUAGCAAUAUUACGUAAA were -2.68 ± 0.28 and -2.27 ± 0.4. Taken in the same sequence, the figures for CAGAAGCAAUAUUACGCCUG were -2.25 ± 0.23 and -3.94 ± 0.39. As to CACUAGCAAUAUUACGAGAG, the “self-splicing fitness (ln)” value was -3.21 ± 0.2 (30 °C) and -1.73 ± 0.14 (37 °C). In the case of CUUGAGCAAUAUUACGACUC, the “self-splicing fitness (ln)” value (37 °C) was -1.67 ± 0.42.

In the case of UCUGAGCAAUAUUACGGCGG, the “self-splicing fitness (ln)” value is, setting by setting: (30 °C) -0.492 ± 0.094; (37 °C) -0.249 ± 0.14.

Consider ACCCAGCAAUAUUACGGUUG, for which the “self-splicing fitness (ln)” value runs as follows: (30 °C) -3.66 ± 0.18; (37 °C) -2.3 ± 0.19. Taken in the same sequence, the figures for GCAGAGCAAUAUUACGCGUA were -2.94 ± 0.33 and -2.22 ± 0.25.

Consider AGUCAGCAAUAUUACGUGGU, for which the “self-splicing fitness (ln)” value is -1.26 ± 0.11 (30 °C) and -2.37 ± 0.19 (37 °C). In the same order, the values of GUAAAGCAAUAUUACGUCGA are -0.947 ± 0.088 and -0.407 ± 0.1. In the same order, the values of ACCUAGCAAUAUUACGAUGU are -0.605 ± 0.045 and 0.0835 ± 0.065. Taken in the same sequence, the figures for UAGUAGCAAUAUUACGGAUC were -2.87 ± 0.11 and -0.854 ± 0.079. In the case of CUCCAGCAAUAUUACGUGUA, the “self-splicing fitness (ln)” value was -2.95 ± 0.14 (30 °C) and -2.82 ± 0.19 (37 °C).

Regarding ACCCAGCAAUAUUACGCUGA, the “self-splicing fitness (ln)” value was -1.63 ± 0.087 (30 °C) and -0.241 ± 0.092 (37 °C). For UCCAAGCAAUAUUACGCGGG, the “self-splicing fitness (ln)” value (30 °C) was -3.94 ± 0.24 and the “self-splicing fitness (ln)” value (37 °C) was -3.8 ± 0.36.

With CCACAGCAAUAUUACGCUGG, the “self-splicing fitness (ln)” value is -4.04 ± 0.22 (30 °C) and -2.58 ± 0.2 (37 °C).

Consider UGUAAGCAAUAUUACGUAUA, for which the “self-splicing fitness (ln)” value is, setting by setting: (30 °C) -1.21 ± 0.097; (37 °C) -0.761 ± 0.12. In the same order, the values of CCCCAGCAAUAUUACGCUCG are -3.14 ± 0.17 and -2.1 ± 0.19. Consider ACAAAGCAAUAUUACGAAUA, for which the “self-splicing fitness (ln)” value (30 °C) is -3.62 ± 0.29 and the “self-splicing fitness (ln)” value (37 °C) was -1.95 ± 0.17. With CUAGAGCAAUAUUACGACGG, the “self-splicing fitness (ln)” value (30 °C) is -0.119 ± 0.12 and the “self-splicing fitness (ln)” value (37 °C) is 0.393 ± 0.17.

In the case of AUGAAGCAAUAUUACGUCAC, the “self-splicing fitness (ln)” value is -2.97 ± 0.26 (30 °C) and -1.09 ± 0.18 (37 °C). In the same order, the values of GGCUAGCAAUAUUACGCGAG are -4.46 ± 0.39 and -2.74 ± 0.28.

Take CCAGAGCAAUAUUACGCUAA: the “self-splicing fitness (ln)” value (30 °C) was -2.74 ± 0.24 and the “self-splicing fitness (ln)” value (37 °C) is -2.57 ± 0.24. Taken in the same sequence, the figures for AGUAAGCAAUAUUACGGGUG were -3.13 ± 0.18 and -0.695 ± 0.11.

Regarding UUCAAGCAAUAUUACGUGUA, the “self-splicing fitness (ln)” value (30 °C) was -1.11 ± 0.056 and the “self-splicing fitness (ln)” value (37 °C) was -0.453 ± 0.059.

Regarding CUCCAGCAAUAUUACGAUUA, the “self-splicing fitness (ln)” value is, setting by setting: (30 °C) -2.63 ± 0.32; (37 °C) -2.37 ± 0.37. In the same order, the values of ACUGAGCAAUAUUACGUGUC are -2.31 ± 0.25 and -2.62 ± 0.28. On to CAGUAGCAAUAUUACGCCUU, for which the “self-splicing fitness (ln)” value (30 °C) was -1.35 ± 0.4.

GUGAAGCAAUAUUACGUGUU: the “self-splicing fitness (ln)” value is -2.74 ± 0.1 (30 °C) and -1.23 ± 0.085 (37 °C). Taken in the same sequence, the figures for CCGUAGCAAUAUUACGGCAG were -3.35 ± 0.26 and -2.28 ± 0.26.

As to GGACAGCAAUAUUACGUGCG, the “self-splicing fitness (ln)” value (30 °C) is -0.326 ± 0.064 and the “self-splicing fitness (ln)” value (37 °C) is 0.365 ± 0.087. In the same order, the values of CACGAGCAAUAUUACGCGGG are -4.05 ± 0.26 and -2.88 ± 0.26. In the same order, the values of CGGCAGCAAUAUUACGAGAU are -1.99 ± 0.19 and -2.81 ± 0.27. Regarding AUGCAGCAAUAUUACGUUAG, the “self-splicing fitness (ln)” value is -3.05 ± 0.15 (30 °C) and -2.38 ± 0.2 (37 °C). Taken in the same sequence, the figures for AACCAGCAAUAUUACGAGAC were -3.67 ± 0.39 and -1.71 ± 0.18. In the same order, the values of GGAUAGCAAUAUUACGACGC are -0.274 ± 0.11 and 0.262 ± 0.12. In the same order, the values of GAUUAGCAAUAUUACGAUGG are -3.28 ± 0.15 and -1.17 ± 0.12. Consider AGCCAGCAAUAUUACGCUGG, for which the “self-splicing fitness (ln)” value was -4.12 ± 0.26 (30 °C) and -2.32 ± 0.26 (37 °C). For UAUGAGCAAUAUUACGGUCG, the “self-splicing fitness (ln)” value is, setting by setting: (30 °C) -2.52 ± 0.12; (37 °C) -1.19 ± 0.12. As to AUCCAGCAAUAUUACGGGUG, the “self-splicing fitness (ln)” value is -1.18 ± 0.049 (30 °C) and -0.904 ± 0.061 (37 °C). Take AUAUAGCAAUAUUACGCCCG: the “self-splicing fitness (ln)” value is -1.67 ± 0.21 (30 °C) and -1.56 ± 0.42 (37 °C). Taken in the same sequence, the figures for CCCUAGCAAUAUUACGUGCG were -2.36 ± 0.13 and -2.97 ± 0.17.

GUGAAGCAAUAUUACGGCUA: the “self-splicing fitness (ln)” value was -0.323 ± 0.1 (30 °C) and 0.322 ± 0.12 (37 °C). Taken in the same sequence, the figures for AGUAAGCAAUAUUACGUUCA were -1.29 ± 0.095 and -0.266 ± 0.12.

With UAGUAGCAAUAUUACGAGCU, the “self-splicing fitness (ln)” value (37 °C) was -0.383 ± 0.21. GUUGAGCAAUAUUACGACUU: the “self-splicing fitness (ln)” value by setting is: (30 °C) -2.53 ± 0.2; (37 °C) -1.92 ± 0.21.
